Experimental data published in US12686712B2, “Antibody, related use, pharmaceutical composition including method for diagnosing fungal infections, fungal infection diagnosis kit and method for treating fungal infections” (priority 2020, dated 2026).
Where “and” joins values, the source holds several entries; their conditions need not be identical. Equal entries are not always repeated.

How the values were obtained:
C. neoformans [1] = test: Minimum inhibiting concentration (MIC) assay, alone or in association with AmB or FLC; assay type: cell-based, Cryptococcus neoformans; conditions: 48 hours at 37° C.
Method: C. neoformans cells were cultivated in RPMI 1640 buffered with MOPS in pH 7 at 10^5 cell/well density in 96-well plates in 200 μl final volume. Systems were supplemented with AcM at concentration (25 to 0.05 μg/ml), AmB (1 to 0.1 lμg/ml) or FLC (8 to 2 μg/ml), alone or in association. After 48 hours of incubation at 37° C. under agitation, cells were suspended by pipetting for spectrophotometer reading at 592 nm wavelength.
AcMs fungicide activity was tested through CIM test. […] It was assessed if AcMs association with AmB or FLC would trigger antifungal effects in sub-inhibiting concentrations, thus 1 μg/ml concentrations of AmB and 4 and 2 μg/ml to FLC in combination with AcMs different concentrations. To assess whether there was combining effect of AcMs with drug, it was used as drug action base in isolate form.

C. neoformans strain H99 = test: Survival trial, lethal i.p. challenge; assay type: in vivo, Balb/C line mice; conditions: AmB standard dose 2.5 mg/kg alone; data not provided
Method: Balb/C line mice (n=7) were lethally challenged via i.p. with 10^5 cells in PBS of C. neoformans (H99) and treated 2 hours later with 100 μl of AmB (2.5 mg/kg and 0.25 mg/kg), 100 μl of AcM (85 μg/ml) and 100 μl of AcM and AmB combined solution (0.25 mg/kg). Control animals were challenged only by C. neoformans (H99) or only with 100 μl of a solution of PBS, AmB (2.5 mg/kg) or AcM (85 μg/ml) without fungus (adapted from Liedke et al.). Survival rate was achieved and analysis was extended up to 90 days after infection, presenting statistical value with p<0.005.
Mice were lethally challenged with inoculant i.p. of 1×10^5 cells of yeast C. neoformans strain H99. After 2 hours, they were treated with PBS (negative control), 85 μg/animal of AcM (HC6/DD11) in isolate form, 0.25 or 2.5 mg/kg of AmB in isolate form, and in synergic form, AcM keeping test concentrations. Treatments were repeated for another two times, with 10-day interval.

C. neoformans [2] = test: Melanization trial (L-DOPA); assay type: cell-based, Cryptococcus neoformans
Method: C. neoformans cultivation was performed as paragraph and cellular suspension (1×10^6 cells/ml) was cultivated for 72 hours in minimum media supplemented with 1 mM of L-DOPA in 96-well plate of U-shape bottom. Antibodies HC6/DD11 and AF1/CC5 were added to minimum media within 25 to 0.05 μg/ml concentration range. The plate was centrifuged and pigment development quantification was defined densitometrically upon image scanning by iBright FL1000 Invitrogen equipment.
AcM HC6/DD11 e AF1/CC5 established concentrations were 0.2 to 25 μg/ml. L-DOPA was used with substrate to melanization.
Pigmentation in C. neoformans was assessed through brown to black sedimentation observation in 96-well plate bottom. To document pigmentation or inhibition, plates were photographed over white surfaces (clear bottom), to enable differentiation between pigmented and non-pigmented populations. It shall be noted that every AcM dose presents fungal growth, however with negative pigmentation or partial inhibition.

[3] = tested on: acapsular mutant of C. neoformans Cap67; test: Biofilm development, XTT reduction trial; assay type: cell-based, Cryptococcus neoformans; conditions: AcM 25 μg/ml, 48 hours at 37° C., vs fungus without treatment, p<0.05
Method: (§1) C. neoformans (H99 and Cap67) and Candida albicans were cultivated in Sabouraud media for 24 hours at 30° C. Cellular suspensions were centrifuged for 5 minutes at 3000 g, washed 3 times in PBC and suspended in minimum media (20 mg/ml thiamin, 30 mm glucose, 26 mM glycine, 20 mM MgSO4, and 58.8 mM KH2PO4). Then, they were added to 96-well plates (100 μl/well—1×10^6 células/ml) and cultivated for 48 hours at 37° C. at presence of AcM (HC6/DD11 and AF1/CC5) and AcM anti-GXM 18B7 (only to H99) at 25 μg/ml concentration, keeping under agitation for 30 minutes, for AcM total homogenization with fungi. As control, drug AmB was used at 1 μg/ml concentration.
(§2) Two analysis systems were performed: in the first, cells were washed, so that non-adhering cells were removed and only cells bonded to biofilm under development remained; in the second system, cells were not washed and all cells adhered or not to substrate were quantified.
(§3) Viable cell metabolic activity in both trials was assessed by the method based on decrease of XTT (2-methoxy-4-nitro-5-sulfophenyl)-5-[(phenylamino) carbonyl]-2H-tetrazolium hydroxide) in spectrophotometer at 492 nm of wavelength.
(§4) AcMs were tested (25 μg/ml) against three fungus species (C. albicans, C. neoformans—H99—and acapsular mutant of C. neoformans—Cap67), with control by AcM anti-GXM 18B7 (25 μg/ml) only to H99. In the first assay (FIGS. 14A and B), cellular suspensions were washed to remove non-adhering cells to substrate. […] In second assay (FIGS. 14C and D), cellular suspensions were not washed, and again AcM inhibited biofilm development (p<0.05) compared to cell not treated with antibodies. In both assays, cell growth was observed.

Candida albicans = test: Immunofluorescence of AcM anti-chitooligomer against intact cells; assay type: binding; conditions: AcM 25 μg/mL, 1 h at 37° C.; anti-IgM Alexa 568; calcofluor
Method: Fungal cells (10^6 cells)) were fastened (cacodylate paraformolaldehyde buffer 4%; 30 min) and blocked later (PBS/BSA 1%; 1 hour). Then, they were incubated with AcM anti-chitooligomer(25 μg/mL; 1 h at 37° C.) After washing with PBS, cells were incubated with mouse anti-IgM antibody conjugated at Alexa 568 (SIGMA; 1:1000). After PBS washing, cells were incubated with 25 μM of white calcofluor (Invitrogen) and washed again. Cellular suspensions were assembled in glass blades and assessed under microscope Olympus AX70, coupled to camera system (QImaging Retiga 1300) and assessed in QCapture suite V2.46 software.
From reliable and ELISA and Dot Blot trials, biological activity validation tests. Thus, AcMs were used through immunofluorescence (IF), using the pathogen Candida albicans as template. AcMs were efficient at fungal cellular wall labeling, showing the same profile whenever standard marker is used (lectin), data not provided.

C. neoformans H99 = test: Biofilm development, XTT reduction trial; assay type: cell-based, Cryptococcus neoformans; conditions: AcM 25 μg/ml, 48 hours at 37° C., vs fungus without treatment, p<0.05
Method: as §1, §2, §3, §4
AcMs were compared to AcM anti-GXM 18B7 concerning biofilm development inhibition.

C. albicans [4] = test: Biofilm development, XTT reduction trial; assay type: cell-based, Candida albicans; conditions: AcM 25 μg/ml, 48 hours at 37° C., vs fungus without treatment, p<0.05
Method: as §1, §2, §3, §4

C. neoformans (H99) = test: Indirect ELISA against intact cells using poly-L-Lysine (PL); assay type: binding, Cryptococcus neoformans; conditions: 10^4 and 10^5 cells/ml
Method: (§5) For this test, C. neoformans (H99), Candida albicans, Giardia lamblia, human lung line cell A549 (ATCC), Escherichia coli and Staphylococcus aureus. Cells were washed in PBS three times and suspended at 10^7 cell/ml density in poly-L-Lysine (5 μg/ml in PBS) for adherence at night at 4° C. The next day, plates were blocked with PBS/BSA 5% and incubated for 1 hour at 37° C., then they are incubated for 1 hour at 37° C. with anti-chitooligomer AcM at 50 μg/ml concentration and diluted at 5 μg/ml. Then, washing with PBS/Tween 0.05% was performed for 3 times and anti-IgM murine peroxidase was added diluted 1:5000 and incubated for 2 hours at 37° C. Plates were washed again and TMB was added and incubated for 30 minutes at 37° C.
(§6) Reaction was stopped with HCl 1 N and reading with spectrophotometer at 450 nm. After this trial, seriated dilutions were performed at density of cells 10^7 until 10 cells/ml to fungi and 10^7 until 10^4 cells/ml to other cellular types and tested of AcM anti-chitooligomer at 25 μg/ml concentration, followed by the same procedures abovementioned. […]
(§7) In this trial, 10^7 cell/ml of C. albicans were used to perform an absorbance curve, in which it was observed that there was a 25 μg/ml concentration reliable signal of both AcM, as above such value the curve starts to enter in plateau, as provided in FIG. 9. […]

C. albicans [5] = test: as above; assay type: binding, Candida albicans; conditions: 10^4 and 10^5 cells/ml
Method: as §5, §6, §7

Molecule	concentration with fungicide effect (control drug alone) (C. neoformans [1]) [µg/mL]	death of infected animals (C. neoformans strain H99)	melanization in lower concentrations (C. neoformans [2]; concentrations lower than 1.6 μg/ml, p>0.05)	AcM concentration with partial inhibition of melanization/pigmentation (C. neoformans [2]; series 25 to 0.2 μg/ml, 72 hours, 1 mM L-DOPA, p<0.05)	biofilm development (XTT reduction) ([3]; non-washed cells)	biofilm development (XTT reduction) ([3]; washed cells)	fungal cellular wall labeling by immunofluorescence (Candida albicans)	biofilm development (XTT reduction) (C. neoformans H99; non-washed cells)	biofilm development (XTT reduction) (C. neoformans H99; washed cells)	biofilm development (XTT reduction) (C. albicans [4]; non-washed cells)	biofilm development (XTT reduction) (C. albicans [4]; washed cells)	ELISA signal in cell saturation curve (C. neoformans (H99))	ELISA signal in cell saturation curve (C. albicans [5])
C[C@@H]1[C@H](O)[C@@H](C)/C=C/C=C/C=C/C=C/C=C/C=C/C=C/[C@H](O[C@@H]2O[C@H](C)[C@@H](O)[C@H](N)[C@@H]2O)C[C@@H]2O[C@](O)(C[C@@H](O)C[C@@H](O)[C@H](O)CC[C@@H](O)C[C@@H](O)CC(=O)O[C@H]1C)C[C@H](O)[C@H]2C(=O)O [AmB, amphotericin polyene B, reference compound]	1	did not die											
OC(Cn1cncn1)(Cn1cncn1)c1ccc(F)cc1F [FLC, Fluconazole]	8												
AF1/CC5: murine IgM monoclonal antibody against chitooligomers (chitotriose); VH SEQ ID NO: 19, VL SEQ ID NO: 20 (antibody, listed as Mus musculus, V domains shown) VH: STGQVKLEESGGGLVQPGGSMKLSCAASGFTFSDAWMDWVRQSPEKGLEWVAEIRSKANNHATYYAESVKGRFTISRDDSKSSVYLQMNSLRAEDTGIYYCTRHRYDGFDYWGQGTTLTFP VL: DYFLASQGEVTMTCSASSSISYMHWYQQKPGTSPKRWIYDTSKLASGVPARFSGSGSGTSYSLTISSMEAEDAATYYCHQRSSYPCTFGAGTKLELKRADAAPTVSLETKTS			not significant inhibition	3.2 µg/mL and 1.6 µg/mL	reduced biofilm development significantly	reduced biofilm development significantly	characteristic polar label	reduced biofilm development significantly	reduced biofilm development significantly	reduced biofilm development significantly	reduced biofilm development significantly	a plateau to both cells was achieved	a plateau to both cells was achieved
